Common to all, as to assay: ITC; ITC (Arc1p): 25 mM Tris-HCl pH 7.4, 150 mM NaCl, 2 mM MgCl2, 25 °C. FP and competition FP: 25 mM Tris-HCl pH 7.5, 150 mM NaCl (Arc1p) or 50 mM NaCl (Trbp111), 2 mM MgCl2, room temperature
What all share (details): protein: recombinant; tags: His-MBP removed; tRNA fold

One data set has as its target T1, Arc1p dN K269A (Saccharomyces cerevisiae, UniProt P46672 132-376, K269A;del1-131).
T1 sequence: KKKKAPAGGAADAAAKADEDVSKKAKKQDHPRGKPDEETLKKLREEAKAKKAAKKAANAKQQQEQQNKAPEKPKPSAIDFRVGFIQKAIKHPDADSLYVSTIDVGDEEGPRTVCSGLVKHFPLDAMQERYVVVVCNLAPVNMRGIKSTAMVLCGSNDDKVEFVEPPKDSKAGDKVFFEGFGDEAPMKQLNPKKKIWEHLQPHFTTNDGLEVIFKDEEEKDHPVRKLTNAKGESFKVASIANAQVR

Data set [1] addresses T2, Arc1p dN V271A/M273A/M281A (Saccharomyces cerevisiae, UniProt P46672 132-376, V271A;M273A;M281A;del1-131).
T2 sequence: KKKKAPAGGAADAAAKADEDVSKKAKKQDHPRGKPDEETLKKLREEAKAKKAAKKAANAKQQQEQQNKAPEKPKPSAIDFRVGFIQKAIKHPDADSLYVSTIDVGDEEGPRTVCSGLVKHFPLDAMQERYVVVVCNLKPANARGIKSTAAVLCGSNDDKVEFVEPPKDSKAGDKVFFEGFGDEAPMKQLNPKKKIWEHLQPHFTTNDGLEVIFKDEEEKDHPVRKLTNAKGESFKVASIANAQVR

A further data set deals with T3, Arc1p dN R274A (Saccharomyces cerevisiae, UniProt P46672 132-376, R274A;del1-131).
T3 sequence: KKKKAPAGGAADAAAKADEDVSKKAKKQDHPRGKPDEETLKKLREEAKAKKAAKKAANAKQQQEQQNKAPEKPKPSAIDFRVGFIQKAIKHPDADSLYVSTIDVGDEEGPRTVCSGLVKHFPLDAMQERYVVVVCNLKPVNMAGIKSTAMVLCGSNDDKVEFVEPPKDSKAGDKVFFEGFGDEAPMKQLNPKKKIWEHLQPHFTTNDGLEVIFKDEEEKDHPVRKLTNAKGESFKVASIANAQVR

For the next data set, the target named is T4, Arc1p dN S278A/M281A (Saccharomyces cerevisiae, UniProt P46672 132-376, S278A;M281A;del1-131).
T4 sequence: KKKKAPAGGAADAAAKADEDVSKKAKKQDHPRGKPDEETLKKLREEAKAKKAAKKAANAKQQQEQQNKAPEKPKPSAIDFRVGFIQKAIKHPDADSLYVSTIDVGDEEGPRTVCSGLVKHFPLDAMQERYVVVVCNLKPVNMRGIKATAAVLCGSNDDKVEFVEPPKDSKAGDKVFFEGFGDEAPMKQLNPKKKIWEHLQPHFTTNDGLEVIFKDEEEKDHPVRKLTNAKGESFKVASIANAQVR

B1: tRNAIle WT (structured_RNA)
RNA: AGGCUUGUAGCUCAGGUGGUUAGAGCGCACCCCUGAUAAGGGUGAGGUCGGUGGUUCAAGUCCACUCAGGCCUACCA
Take B1: the Kd (commonly the constant that tells how readily two partners part at equilibrium) with Arc1p dN K269A was determined as 1500 ± 55 nM; in data set [1] it was 544 ± 215 nM; with Arc1p dN R274A it was 2980 ± 674 nM; with Arc1p dN S278A/M281A, 1430 ± 379 nM.

Values taken from publication PMC11286949, “Structural basis of tRNA recognition by the widespread OB fold”.
